In IntAct's records for PubMed 15020681:

B1: "Na(+)/H(+) exchange regulatory cofactor NHE-RF1" (Homo sapiens), O14745 (parent)
chain: MSADAAAGAPLPRLCCLEKGPNGYGFHLHGEKGKLGQYIRLVEPGSPAEKAGLLAGDRLVEVNGENVEKETHQQVVSRIRAALNAVRLLVVDPETDEQLQKLGVQVREELLRAQEAPGQAEPPAAAEVQGAGNENEPREADKSHPEQRELRPRLCTMKKGPSGYGFNLHSDKSKPGQFIRSVDPDSPAEASGLRAQDRIVEVNGVCMEGKQHGDVVSAIRAGGDETKLLVVDRETDEFFKKCRVIPSQEHLNGPLPVPFTNGEIQKENSREALAEAALESPRPALVRSASSDTSEELNSQDSPPKQDSTAPSSTSSSDPILDFNISLAMAKERAHQKRSSKRAPQMDWSKKNELFSNL

Variants of: B1
Conditions: with moes_human MSN

| effect of a mutation on the interaction | Variant |
| --- | --- |
| decreasing interaction | F355R |
